Read-outs that look alike come from different tables or passages of the source.

What all share (test): thiol-disulfide exchange
Test [1] has as its target Ibα-TM (human).
Test [2] addresses Ibα-TM (human). The source holds these as a separate data set.
For test [3], the target named is Ibα-TM (human). The source holds these as a separate data set.
In test [4] the target is (Ibβ-TM)-SS-(Ibα-TM)-SS-(Ibβ-TM) peptide complex (human).
The target is the same in test [5]. The source holds these as a separate data set.
For test [6] the target is unchanged. The source holds these as a separate data set.

B1: Ibβ-TM (peptide)
chain: GSGGGLCWGALAAQLALLGLGLLHALLLVLLLSRLRRLRARARARAAARLSLTDPLVAERAGTDES
B1: the αβ2 production (% of Ibβ-TM) with Ibα-TM (human) [1] is 27.7 % of Ibβ-TM; in the test with Ibα-TM (human) [2], 20.5 % of Ibβ-TM; with Ibα-TM (human) [3], 13.5 % of Ibβ-TM.
Take GSVRPGVLWDVALVAVAALGLALLAGLLNATTEALD [IX-TM]: the αβ2 production with IX-TM (% of Ibβ-TM) in test [4] was 32.8 % of Ibβ-TM; in test [5], 29.4 % of Ibβ-TM; in test [6], 41.2 % of Ibβ-TM.
